Among the data in the supplement of paper PMC12042874 are amyloid nucleation score values, retold here.

± gives the uncertainty stated by the source.

The data set can be described thus: amyloid nucleation score (Sup35N fusion, yeast selection) (log enrichment); library NNK1; higher = more nucleation; inactive = no reads after selection. The method, boiled down: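 The nucleation score is the DiMSum log enrichment of output over input reads, centred on the mode score of non-aggregating sequences. Only sequences with 100 or more input reads were scored, using Illumina sequencing of input and output plasmid inserts. Psi-negative yeast expressing Sup35N fused to peptides of 20 random codons were induced 24 hours with 100 μM copper sulfate and grown 7 days at 30°C on medium lacking adenine and uracil.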
YYVVVFVANAVFPQYPDPRN showed an amyloid nucleation score of 7.21 ± 0.055. Turning to AALSC, the amyloid nucleation score was found to be 0.844 ± 0.46. The figure for NAACLVLGNVSSFEYSSQMG is 2.41 ± 0.27; for VRARVLSKTIMMTTYERHLV it is -0.691 ± 1.7.

For RLTVTADWHHHWRLVRQFKA, the amyloid nucleation score is -0.044 ± 0.71. With LNSRHVNSYF, the amyloid nucleation score turned out to be 0.869 ± 0.48. The figure for TSGSRVRRRWGMLVCRNRSR is -1.25 ± 2.4.

For the substance VYQVNVGCWSCGCRTVICNR, the amyloid nucleation score was determined as 7.932 ± 0.045. The figure for WIPGRLLSAVKVGSNSLVF is -0.637 ± 0.62; for LCYFQGSWYLVRCAIALTYV it is 0.327 ± 0.48.

As for DTNVVWYYLSWDSPGNGDWK, the amyloid nucleation score entry is “inactive”.

Substance GIRSLFGGKCWDHGSFMWKF gave an amyloid nucleation score of -0.195 ± 0.54. For the substance WLLISSALIIYVRHGLIRSM, the amyloid nucleation score was -0.455 ± 0.81. In turn, THNSLFSHVSWYRCVSSGVF gave an amyloid nucleation score of 0.304 ± 1.1.

The substance RGGWRTVQCSLNQGWLRRYL returned an amyloid nucleation score of 0.048 ± 0.42. CSNEK: the amyloid nucleation score was determined as 0.319 ± 0.97. In the case of FCMTMRSARCGHLSMYCCFQ it was 1.8 ± 0.4. Substance YICEFMIRTMKQPWPSKGEG came in with an amyloid nucleation score of 0.542 ± 0.32.

Take DTLGRSLLYYIRYSRVNFPV: the amyloid nucleation score result is “inactive”.

KVFSVHRHCQESVVGAVLCS displayed an amyloid nucleation score of -0.371 ± 0.73.

The substance VFFLGMVCAVWATFDVSYNG returned an amyloid nucleation score of 1.31 ± 0.35. Turning to RCQNRH, the amyloid nucleation score was -0.221 ± 0.46. The entry for GSVRRKRHGHLDV is “inactive”; for IRIFNKHGHGG it is -0.664 ± 0.36. Consider WENTSRKYVAANDCARMRLG, for which the amyloid nucleation score is -0.281 ± 0.41. Substance VWKDRPEMYSCGHCIEMRAE came in with an amyloid nucleation score of 0.039 ± 0.37. The figure for IIMVRLFSRNGVEDC is 1.61 ± 0.12; for LFFEVMHTFMLNMEFLLRFI it is -1.12 ± 0.94; for QISVGTYWFANWCGIILNQV it is 1.99 ± 0.28. The figure for LFHGCLVGLSMRKVKKKNPA is 0.277 ± 0.28; for RMALCKSVCFTFWNIF it is 3.69 ± 0.13. Substance WGTVYVPV had an amyloid nucleation score of 1.72 ± 0.49. For VRIINMFVDPNIIL, the amyloid nucleation score stood at 6.818 ± 0.044. With SRNLGMYHMYFKFPWCMNPM, the amyloid nucleation score was -0.15 ± 0.46. RRARFFFRGYY came in with an amyloid nucleation score of 6.12 ± 0.078.

Turning to GLLETYDWAVQWTGHLEC, the amyloid nucleation score stood at 0.168 ± 0.89. Consider VDNSCFRGT, for which the amyloid nucleation score is -0.391 ± 0.66. GRSYFVVGFLSELCEKWLTK displayed an amyloid nucleation score of 0.046 ± 1.

Take SLQISCQWYAVWGHMLLSDF: the amyloid nucleation score entry is “inactive”. VSGSVFTNMIANILSTSRYV: the amyloid nucleation score is -0.179 ± 1.6. For QCRILAHAGLLPSGTCPMWL, the amyloid nucleation score is -0.919 ± 0.92.

As for MSLSFAPLAIYPDNIVTDVI, the amyloid nucleation score was -0.329 ± 0.7. The figure for EDALRIFRKETDPDL is 0.681 ± 0.29. In the case of MGVVQCAKRQQRLLMQLTVL, the amyloid nucleation score came to 0.054 ± 0.93. Turning to IYWSP, the amyloid nucleation score turned out to be 0.569 ± 0.26. The figure for YDSRCMAVSFSGSLFSHLLE is -0.317 ± 0.45; for YFASCRTM it is -0.193 ± 0.27; for DNRIIWLRGTMS it is 0.853 ± 0.92. The figure for MVTCGYKDFK is -1.7 ± 1.5. In the case of KRFSSCLRRWAACNGESAAL it was 0.412 ± 0.45; in that of SSVFCFIGKASEAVILAIYC, -0.052 ± 0.79; in that of NDYYCFHRAIFFDTGMYFSN, -0.009 ± 0.41.

With SVWDERIPGGYSPIRVCPSW, the amyloid nucleation score is -0.337 ± 0.74. NTVFL showed an amyloid nucleation score of 0.549 ± 0.39.

Take PIHYEPSKAVYYTQFRGGMG: the amyloid nucleation score is -0.184 ± 0.42.

Regarding TVSIGDVTRFVMAVASTTF, the amyloid nucleation score is 0.18 ± 1.1. WSTGDVLVLVKLYYAFMCVI yielded an amyloid nucleation score of -0.819 ± 0.27.

On to RLYSYVFSGSPHIGWHLCSM, for which the amyloid nucleation score is 3.82 ± 0.11. Substance FCEDKNRRSSPSIWQNNCKM displayed an amyloid nucleation score of 0.829 ± 0.16. In the case of GLGGYT it was -0.155 ± 0.49; in that of GHSRRLYCGLEAGARCGFSR, -0.455 ± 1.5. Regarding NVTFEADLQLLCSRCSWFGT, the amyloid nucleation score was determined as 3.17 ± 0.061. VRAGH registered an amyloid nucleation score of 0.087 ± 0.27. The figure for HESGRRAIYS is -0.019 ± 0.29; for SYHVMNKDYMVYFKNTYKDK it is 4.68 ± 0.078; for VKSADIIVL it is -0.357 ± 0.34. In the case of RILEGVFS it was “inactive”.

Take RYDSRFALPLDLS: the amyloid nucleation score is -0.245 ± 0.45. In the case of RVSFQIVTVGWC it was -1.13 ± 1.2; in that of CLWCDRTVASWAKVSASVRL, -0.073 ± 0.24. The figure for NGYYRLSWIKWVQKDGRVRR is 0.598 ± 1; for LLNAFWSFAY it is 1.6 ± 0.32.

Regarding LGDELDTDAASISSNMEIWS, the amyloid nucleation score result was “inactive”. In the case of MRWHINATLNGRLGAGLILV it was -0.526 ± 0.7; in that of QHYMQVIDLGSWWSSWVYFI, -0.005 ± 0.97; in that of CLSCSNICFFIHSVNWDVFS, 5.27 ± 0.11.

Substance LSRLCGSRLLVRVVWRHYRG showed an amyloid nucleation score of -0.21 ± 0.28. The figure for VVRLG is 0.124 ± 1; for VFMMSDTC it is “inactive”.

Turning to KFVTVKTRQLKSAGASIVSG, the amyloid nucleation score is -0.119 ± 0.69. The figure for FSREYL is -0.251 ± 0.3. In turn, SLYCNGVRMPLAETSGNEHL had an amyloid nucleation score of -0.091 ± 0.43. The figure for ILQFFDILSIYVCGWEHEL is 6.273 ± 0.053; for HLRRVMYLFAANCGPRPAND it is -0.69 ± 0.96; for SKIHYMF it is -0.942 ± 0.57. Regarding SLEWFSRWSN, the amyloid nucleation score amounted to 1.15 ± 0.37. The figure for FRCLTVYCWF is 7.894 ± 0.044; for KSLSRFRVTNSKEYMSAMGT it is -0.299 ± 0.26; for RDTICITL it is 0.311 ± 0.82.

In turn, MKSCASDPVCCPQTTRSTSL returned an amyloid nucleation score of 0.742 ± 0.49. In the case of AVYICPYLQSGNALATDMW it was 0.587 ± 1.1; in that of MMVLKFGMLVLSGDLAPATS, 0.854 ± 0.72; in that of QEDRGPLLHFRLNSYNVMTQ, 0.471 ± 0.62. The figure for YKSIWTRLGSGRSRVGLSRL is -0.38 ± 1; for LRVYPGTYLTNRETRSRSCI it is 0.828 ± 0.43; for YTVRLM it is 0.125 ± 0.61. Take VSRWYVILNML: the amyloid nucleation score is 4.03 ± 0.11. In the case of LVISETWGSCFWNSVDSCAG it was 0.815 ± 0.66. In the case of RYSGFLSVSLL it was -0.087 ± 1; in that of WRESSGTNLSAFVPKDM, -0.675 ± 0.81. LSRIDRFTVGENMVTATFLI: the amyloid nucleation score entry was “inactive”. The figure for TYFFKLNP is -1.07 ± 1.4. Turning to SCGNNYTSV, the amyloid nucleation score was -0.236 ± 0.2. The figure for PANIVAFGGLMSIPLVLPVL is -0.104 ± 0.4.
